Results reported in the Human Domainome abundance scans (Beltran et al. 2025).
± gives the uncertainty stated by the source.

B1: F-BAR and double SH3 domains protein 1, residues 467 to 528; numbered along this chain, Q86WN1 (parent)
chain: RALPCPAHVVFRYQAGREDELTITEGEWLEVIEEGDADEWVKARNQHGEVGFVPERYLNFPD
B2: CD2-associated protein, residues 109 to 169; numbered along this chain, Q9Y5K6 (parent)
chain: KKRQCKVLFEYIPQNEDELELKVGDIIDINEEVEEGWWSGTLNNKLGLFPSNFVKELEVTD

Variants of: B1
Test: abundance fitness (aPCA) (normalised: wild type 0, dead -1); higher = more abundant; growth selection in yeast, the domain comes from the species named
Conditions: Homo sapiens

L3T and P6C are within error of each other in abundance fitness: -0.201 ± 0.072 for the first, -0.12 ± 0.071 for the second.

P6Y and P6H are within error of each other in abundance fitness: -0.258 ± 0.12 for the first, -0.038 ± 0.14 for the second.

P6S and P6E are within error of each other in abundance fitness: -0.344 ± 0.071 for the first, -0.294 ± 0.074 for the second.

P6D and P6T are within error of each other in abundance fitness: -0.432 ± 0.14 for the first, -0.219 ± 0.097 for the second.

P6K and P6A are within error of each other in abundance fitness: -0.219 ± 0.075 for the first, -0.094 ± 0.062 for the second.

P6N and P6M are within error of each other in abundance fitness: -0.617 ± 0.15 for the first, -0.357 ± 0.12 for the second.

Going from P6G to P6R, the abundance fitness rises from -0.209 ± 0.052 to -0.077 ± 0.046.

P6V and P6L are within error of each other in abundance fitness: -0.243 ± 0.049 for the first, -0.321 ± 0.048 for the second.

P6F and P6W are within error of each other in abundance fitness: -0.285 ± 0.085 for the first, -0.29 ± 0.062 for the second.

First: P6Q
Second: F11E
The abundance fitness of the first is lower: -0.222 ± 0.072 for the first, 0.109 ± 0.091 for the second.

First: F11P
Second: F11Y
The abundance fitness of the first is lower: -0.774 ± 0.11 for the first, 0.032 ± 0.1 for the second.

F11L and F11S are within error of each other in abundance fitness: -0.061 ± 0.037 for the first, 0.013 ± 0.051 for the second.

Compared with F11T, F11Q is lower in abundance fitness: 0.069 ± 0.056 for the first, -0.103 ± 0.07 for the second.

F11C and F11K are within error of each other in abundance fitness: 0.014 ± 0.058 for the first, 0.017 ± 0.065 for the second.

F11H and F11I are within error of each other in abundance fitness: 0.043 ± 0.095 for the first, 0.12 ± 0.074 for the second.

F11A and F11N are within error of each other in abundance fitness: 0.11 ± 0.048 for the first, 0.039 ± 0.083 for the second.

Going from F11W to F11M, the abundance fitness rises from -0.075 ± 0.049 to 0.141 ± 0.053.

F11G and F11D are within error of each other in abundance fitness: 0.095 ± 0.041 for the first, 0.143 ± 0.092 for the second.

Y13D and Y13L are within error of each other in abundance fitness: -0.648 ± 0.12 for the first, -0.595 ± 0.077 for the second.

Compared with Y13N, Y13P is lower in abundance fitness: -0.38 ± 0.089 for the first, -0.711 ± 0.13 for the second.

Going from Y13C to Y13F, the abundance fitness rises from -0.486 ± 0.11 to -0.06 ± 0.066.

Y13M and Y13V are within error of each other in abundance fitness: -0.594 ± 0.14 for the first, -0.785 ± 0.097 for the second.

Y13A and Y13T are within error of each other in abundance fitness: -0.504 ± 0.079 for the first, -0.629 ± 0.13 for the second.

Going from Y13E to Y13S, the abundance fitness rises from -0.959 ± 0.21 to -0.356 ± 0.059.

Y13H and Y13K are within error of each other in abundance fitness: -0.109 ± 0.11 for the first, -0.16 ± 0.094 for the second.

First: Y13I
Second: Y13R
The abundance fitness of the first is lower: -0.742 ± 0.17 for the first, -0.226 ± 0.061 for the second.

Y13Q and Y13G are within error of each other in abundance fitness: -0.406 ± 0.12 for the first, -0.463 ± 0.083 for the second.

Work on Y13W yielded an abundance fitness of -0.167 ± 0.12.

Variants of: B2
Test: as above
Conditions: Homo sapiens

F53A and F53T are within error of each other in abundance fitness: 0.015 ± 0.13 for the first, -0.255 ± 0.19 for the second.

Y11A and Y11V are within error of each other in abundance fitness: -0.539 ± 0.17 for the first, -0.715 ± 0.13 for the second.

W37I and W37A are within error of each other in abundance fitness: -0.524 ± 0.24 for the first, -0.855 ± 0.32 for the second.

K45M and K45S are within error of each other in abundance fitness: -0.55 ± 0.28 for the first, -0.603 ± 0.15 for the second.

V59A and V59K are within error of each other in abundance fitness: 0.001 ± 0.2 for the first, -0.283 ± 0.27 for the second.

V59Q and V59N are within error of each other in abundance fitness: -0.166 ± 0.13 for the first, -0.342 ± 0.47 for the second.

Going from V59W to P50V, the abundance fitness falls from -0.117 ± 0.079 to -1.03 ± 0.41.

P50S and G40T are within error of each other in abundance fitness: -0.465 ± 0.13 for the first, -1.02 ± 0.5 for the second.

G40Q and G40S are within error of each other in abundance fitness: -1.03 ± 0.43 for the first, -0.92 ± 0.24 for the second.

First: E35T
Second: E35S
The abundance fitness of the first is lower: -0.185 ± 0.15 for the first, 0.213 ± 0.13 for the second.

Compared with E35V, Q14W is lower in abundance fitness: -0.15 ± 0.098 for the first, -0.788 ± 0.32 for the second.

Q14R and K55M are within error of each other in abundance fitness: -0.183 ± 0.15 for the first, 0.009 ± 0.091 for the second.

K55A and K55D are within error of each other in abundance fitness: -0.01 ± 0.087 for the first, -0.313 ± 0.25 for the second.

E32R and N43K are within error of each other in abundance fitness: -0.407 ± 0.25 for the first, -0.544 ± 0.33 for the second.

N43P and N43S are within error of each other in abundance fitness: -0.791 ± 0.36 for the first, -0.337 ± 0.11 for the second.

Going from E34L to L42Y, the abundance fitness rises from -0.611 ± 0.28 to -0.01 ± 0.2.

L42V and L42H are within error of each other in abundance fitness: -0.064 ± 0.1 for the first, -0.252 ± 0.32 for the second.

E58K and E58M are within error of each other in abundance fitness: 0.027 ± 0.12 for the first, 0 ± 0.26 for the second.

V33G and V33F are within error of each other in abundance fitness: -0.483 ± 0.43 for the first, -0.242 ± 0.23 for the second.

T60Y and P13L are within error of each other in abundance fitness: -0.489 ± 0.25 for the first, -0.903 ± 0.34 for the second.

Q4S and R3E are within error of each other in abundance fitness: 0.134 ± 0.22 for the first, -0.401 ± 0.41 for the second.

R3I and R3S are within error of each other in abundance fitness: -0.409 ± 0.1 for the first, -0.364 ± 0.061 for the second.

First: K6A
Second: K6N
The abundance fitness of the first is higher: 0.112 ± 0.053 for the first, -0.472 ± 0.09 for the second.

D28H and T41K are within error of each other in abundance fitness: -0.136 ± 0.25 for the first, -0.229 ± 0.3 for the second.

T41R and S51G are within error of each other in abundance fitness: -0.171 ± 0.12 for the first, -0.35 ± 0.086 for the second.

S51L and S51E are within error of each other in abundance fitness: -0.366 ± 0.088 for the first, -0.762 ± 0.33 for the second.

Going from S51K to S51N, the abundance fitness falls from -0.12 ± 0.13 to -0.769 ± 0.4.

S51V and N52S are within error of each other in abundance fitness: -0.069 ± 0.067 for the first, -0.02 ± 0.079 for the second.

N52D and K1V are within error of each other in abundance fitness: -0.016 ± 0.1 for the first, -0.367 ± 0.26 for the second.

Compared with E20G, C5Q is higher in abundance fitness: -0.369 ± 0.19 for the first, -0.024 ± 0.1 for the second.

C5K and C5I are within error of each other in abundance fitness: -0.632 ± 0.19 for the first, -0.656 ± 0.11 for the second.

Going from K22P to K22H, the abundance fitness rises from -0.612 ± 0.43 to 0.219 ± 0.29.

K22V and D25A are within error of each other in abundance fitness: -0.388 ± 0.28 for the first, -0.339 ± 0.15 for the second.

G36K and I29G are within error of each other in abundance fitness: -0.278 ± 0.21 for the first, -0.31 ± 0.24 for the second.

I29R and I29P are within error of each other in abundance fitness: -0.678 ± 0.22 for the first, -0.625 ± 0.21 for the second.

Going from I29W to E31A, the abundance fitness rises from -0.693 ± 0.2 to -0.052 ± 0.1.

L8N and L8S are within error of each other in abundance fitness: -0.417 ± 0.32 for the first, -0.082 ± 0.12 for the second.

First: L8E
Second: L19H
The abundance fitness of the first is higher: -0.088 ± 0.18 for the first, -0.73 ± 0.36 for the second.

L19R and L19E are within error of each other in abundance fitness: -0.68 ± 0.17 for the first, -0.641 ± 0.34 for the second.

L19W and I27W are within error of each other in abundance fitness: -1.18 ± 0.42 for the first, -0.913 ± 0.24 for the second.

First: I27V
Second: I27E
The abundance fitness of the first is higher: 0.03 ± 0.32 for the first, -0.951 ± 0.43 for the second.

First: V54G
Second: V54C
The abundance fitness of the first is lower: -0.661 ± 0.16 for the first, 0.125 ± 0.26 for the second.

V54M and W38S are within error of each other in abundance fitness: -0.63 ± 0.23 for the first, -0.49 ± 0.092 for the second.

First: W38Q
Second: E16V
The abundance fitness of the first is lower: -0.55 ± 0.15 for the first, -0.182 ± 0.1 for the second.

Going from E16S to I26L, the abundance fitness falls from 0.053 ± 0.14 to -0.245 ± 0.096.

I26Q and V23M are within error of each other in abundance fitness: -0.744 ± 0.25 for the first, -0.34 ± 0.17 for the second.

K2T and K2N are within error of each other in abundance fitness: -0.423 ± 0.3 for the first, -0.227 ± 0.28 for the second.

G47D and G47N are within error of each other in abundance fitness: -0.611 ± 0.19 for the first, -0.723 ± 0.41 for the second.

G47W and F49K are within error of each other in abundance fitness: -0.759 ± 0.18 for the first, -0.524 ± 0.3 for the second.

F49Y and E10W are within error of each other in abundance fitness: -0.27 ± 0.4 for the first, -0.904 ± 0.31 for the second.

First: E10K
Second: L57G
The abundance fitness of the first is higher: -0.215 ± 0.12 for the first, -0.864 ± 0.44 for the second.

L57E and L57Q are within error of each other in abundance fitness: -0.133 ± 0.14 for the first, -0.485 ± 0.27 for the second.

L48F and L48V are within error of each other in abundance fitness: -0.19 ± 0.1 for the first, -0.067 ± 0.055 for the second.

V7M and V7T are within error of each other in abundance fitness: -0.884 ± 0.24 for the first, -0.9 ± 0.31 for the second.

V7A and V7R are within error of each other in abundance fitness: -0.03 ± 0.076 for the first, -0.193 ± 0.17 for the second.

N44L and N44S are within error of each other in abundance fitness: -0.489 ± 0.14 for the first, -0.261 ± 0.18 for the second.
